# Like-named read-outs stand apart in the source and are kept apart here.
# T1: mouse CCR8 (mouse)
# T1 chain: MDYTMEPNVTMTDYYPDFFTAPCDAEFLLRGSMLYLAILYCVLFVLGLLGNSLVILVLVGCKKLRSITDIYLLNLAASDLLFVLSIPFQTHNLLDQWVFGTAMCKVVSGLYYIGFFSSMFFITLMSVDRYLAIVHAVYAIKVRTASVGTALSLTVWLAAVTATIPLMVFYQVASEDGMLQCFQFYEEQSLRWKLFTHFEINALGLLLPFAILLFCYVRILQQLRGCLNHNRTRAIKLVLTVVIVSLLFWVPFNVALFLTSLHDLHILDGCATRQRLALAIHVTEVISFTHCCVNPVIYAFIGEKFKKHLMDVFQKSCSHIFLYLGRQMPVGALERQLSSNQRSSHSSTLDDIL
# Legend:
# Assay in all cases: FACS
# human CCR8 [1] = target: human CCR8 (human)
# mouse CCR8 [2] = target: T1, mouse CCR8
# mouse CCR8 [3] = target: T1, mouse CCR8
# human CCR8 [4] = target: human CCR8 (human); remark: listed apart in the source
# human CCR8 [5] = target: human CCR8 (human); remark: listed apart in the source
# mouse CCR8 [6] = target: T1, mouse CCR8
# human CCR8 (human), sequence (chain, as listed by the source): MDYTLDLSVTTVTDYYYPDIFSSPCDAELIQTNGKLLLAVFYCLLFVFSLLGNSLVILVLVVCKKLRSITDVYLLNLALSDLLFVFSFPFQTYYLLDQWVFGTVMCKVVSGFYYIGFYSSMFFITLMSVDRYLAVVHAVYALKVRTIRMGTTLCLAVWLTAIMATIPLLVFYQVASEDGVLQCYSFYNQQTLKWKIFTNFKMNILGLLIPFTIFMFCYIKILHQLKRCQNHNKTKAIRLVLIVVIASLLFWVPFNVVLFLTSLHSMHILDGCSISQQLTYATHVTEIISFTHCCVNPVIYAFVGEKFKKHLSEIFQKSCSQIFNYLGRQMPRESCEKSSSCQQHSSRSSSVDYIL
Binder,EC50 (human CCR8 [1]) [µg/mL],EC50 (mouse CCR8 [2]) [µg/mL],EC50 (mouse CCR8 [3]) [µg/mL],EC50 (human CCR8 [4]) [µg/mL],also measured
"11F8-SG-11F8-SG (antibody, V domains shown) VH: QVQLVESGGGVVQPGRSLRLSCAASGFTFSTYVMHWVRQAPGKGLEWVAVISYSGNNKYYADSVKGRFIISRDNSKNTLFLQMNSLRGEDTAVYYCARGRSYVNYYGLDVWGQGTTVTVSS VL: DIVMTQTPLSLSVTPGQPASISCKSSQSLLYSSGKTYLYWYLQKPGQPPHLLIYEVSNRFSGVPKRFSGSGSGTDFTLKISRVEAEDVGVYYCMQSVKIPLTFGGGTKVEIK",0.015,0.053,–,–,–
"11F5-N3S-Y6N-11F5 (antibody, V domains shown) VH: EVQLVESGGGVVQPGRSLRLSCAASGFTFSSYVVHWVRQAPGKGLEWVAVISYDGDNKFYADSVKGRFTISRDNSKNTLYLQMNSLRTEDTAVYYCARGRSYYNYYGLDVWGQGTTVTVSS VL: DIVMTQTPLSLSVTPGQPASISCKSSQSLLYSDGKTYLYWYLQKAGQPPQLLIYEVSNRFSGVPDRFSGSGSGTDFTLKISRVEAEDVGVFYCMQSLKVPPTFGQGTKVDIK",–,–,0.105,0.174,–
"11B12-SG-11F8 (antibody, V domains shown) VH: QVQLVESGGGVVQPGRSLRLSCAASGFSFSSYVMHWVRQAPGKGLEWVAVISYSGSDKYYADSVKGRFTISRDNSKNTLFLQMNSLRPEDTAVYYCARGRGYRYGQSYYYGMDVWGQGTTVTVSS VL: DIVMTQTPLSLSVTPGQPASISCKSSQSLLYSDGKTYLYWYLQKPGQPPHLLIYEVSNRFSGVPKRFSGSGSGTDFTLKISRVEAEDVGVYYCMQSVKIPLTFGGGTKVEIK",0.051,0.055,–,–,–
"11F5-Y6N-11F5 (antibody, V domains shown) VH: EVQLVESGGGVVQPGRSLRLSCAASGFTFSSYVVHWVRQAPGKGLEWVAVISYDGDNKFYADSVKGRFTISRDNSKNTLYLQMNSLRTEDTAVYYCARGRNYYNYYGLDVWGQGTTVTVSS VL: DIVMTQTPLSLSVTPGQPASISCKSSQSLLYSDGKTYLYWYLQKAGQPPQLLIYEVSNRFSGVPDRFSGSGSGTDFTLKISRVEAEDVGVFYCMQSLKVPPTFGQGTKVDIK",–,–,0.198,0.254,–
"11B12-SG-11F8-SG (antibody, V domains shown) VH: QVQLVESGGGVVQPGRSLRLSCAASGFSFSSYVMHWVRQAPGKGLEWVAVISYSGSDKYYADSVKGRFTISRDNSKNTLFLQMNSLRPEDTAVYYCARGRGYRYGQSYYYGMDVWGQGTTVTVSS VL: DIVMTQTPLSLSVTPGQPASISCKSSQSLLYSSGKTYLYWYLQKPGQPPHLLIYEVSNRFSGVPKRFSGSGSGTDFTLKISRVEAEDVGVYYCMQSVKIPLTFGGGTKVEIK",–,–,–,–,EC50 (human CCR8 [5]): 0.009 µg/mL; EC50 (mouse CCR8 [6]): 0.099 µg/mL
"11F5-Y5V-11F5 (antibody, V domains shown) VH: EVQLVESGGGVVQPGRSLRLSCAASGFTFSSYVVHWVRQAPGKGLEWVAVISYDGDNKFYADSVKGRFTISRDNSKNTLYLQMNSLRTEDTAVYYCARGRNYVYYYGLDVWGQGTTVTVSS VL: DIVMTQTPLSLSVTPGQPASISCKSSQSLLYSDGKTYLYWYLQKAGQPPQLLIYEVSNRFSGVPDRFSGSGSGTDFTLKISRVEAEDVGVFYCMQSLKVPPTFGQGTKVDIK",–,–,0.762,0.714,–
"11B12-11F8 (antibody, V domains shown) VH: QVQLVESGGGVVQPGRSLRLSCAASGFSFSSYVMHWVRQAPGKGLEWVAVISYDGSDKYYADSVKGRFTISRDNSKNTLFLQMNSLRPEDTAVYYCARGRGYRYGQSYYYGMDVWGQGTTVTVSS VL: DIVMTQTPLSLSVTPGQPASISCKSSQSLLYSDGKTYLYWYLQKPGQPPHLLIYEVSNRFSGVPKRFSGSGSGTDFTLKISRVEAEDVGVYYCMQSVKIPLTFGGGTKVEIK",0.152,0.1,–,–,–
"11F5-N3S-11F5 (antibody, V domains shown) VH: EVQLVESGGGVVQPGRSLRLSCAASGFTFSSYVVHWVRQAPGKGLEWVAVISYDGDNKFYADSVKGRFTISRDNSKNTLYLQMNSLRTEDTAVYYCARGRSYYYYYGLDVWGQGTTVTVSS VL: DIVMTQTPLSLSVTPGQPASISCKSSQSLLYSDGKTYLYWYLQKAGQPPQLLIYEVSNRFSGVPDRFSGSGSGTDFTLKISRVEAEDVGVFYCMQSLKVPPTFGQGTKVDIK",–,–,0.119,0.168,–
"11F5-N3S-Y5V-Y6N-11F5 (antibody, V domains shown) VH: EVQLVESGGGVVQPGRSLRLSCAASGFTFSSYVVHWVRQAPGKGLEWVAVISYDGDNKFYADSVKGRFTISRDNSKNTLYLQMNSLRTEDTAVYYCARGRSYVNYYGLDVWGQGTTVTVSS VL: DIVMTQTPLSLSVTPGQPASISCKSSQSLLYSDGKTYLYWYLQKAGQPPQLLIYEVSNRFSGVPDRFSGSGSGTDFTLKISRVEAEDVGVFYCMQSLKVPPTFGQGTKVDIK",–,–,0.141,0.21,–
"11B12-11F8-SG (antibody, V domains shown) VH: QVQLVESGGGVVQPGRSLRLSCAASGFSFSSYVMHWVRQAPGKGLEWVAVISYDGSDKYYADSVKGRFTISRDNSKNTLFLQMNSLRPEDTAVYYCARGRGYRYGQSYYYGMDVWGQGTTVTVSS VL: DIVMTQTPLSLSVTPGQPASISCKSSQSLLYSSGKTYLYWYLQKPGQPPHLLIYEVSNRFSGVPKRFSGSGSGTDFTLKISRVEAEDVGVYYCMQSVKIPLTFGGGTKVEIK",–,–,–,–,EC50 (human CCR8 [5]): 0.165 µg/mL; EC50 (mouse CCR8 [6]): 0.12 µg/mL
"11F5-11B12 (antibody, V domains shown) VH: EVQLVESGGGVVQPGRSLRLSCAASGFTFSSYVVHWVRQAPGKGLEWVAVISYDGDNKFYADSVKGRFTISRDNSKNTLYLQMNSLRTEDTAVYYCARGRNYYYYYGLDVWGQGTTVTVSS VL: DIVMTQTPLSLSVTPGQPASISCKSSQSLLYSDGKTYLYWYLQKPGQPPQILIFEVSNRFSGVPDRFSGSGSGTDFTLKISRVEAEDVGVYYCMQSIKLPLTFGGGTKVEIK",–,–,–,–,EC50 (human CCR8 [5]): 0.132 µg/mL; EC50 (mouse CCR8 [6]): 0.163 µg/mL
"11F5-N3S-Y5V-11F5 (antibody, V domains shown) VH: EVQLVESGGGVVQPGRSLRLSCAASGFTFSSYVVHWVRQAPGKGLEWVAVISYDGDNKFYADSVKGRFTISRDNSKNTLYLQMNSLRTEDTAVYYCARGRSYVYYYGLDVWGQGTTVTVSS VL: DIVMTQTPLSLSVTPGQPASISCKSSQSLLYSDGKTYLYWYLQKAGQPPQLLIYEVSNRFSGVPDRFSGSGSGTDFTLKISRVEAEDVGVFYCMQSLKVPPTFGQGTKVDIK",–,–,0.129,0.228,–
"11F5-Y5V-Y6N-11F5 (antibody, V domains shown) VH: EVQLVESGGGVVQPGRSLRLSCAASGFTFSSYVVHWVRQAPGKGLEWVAVISYDGDNKFYADSVKGRFTISRDNSKNTLYLQMNSLRTEDTAVYYCARGRNYVNYYGLDVWGQGTTVTVSS VL: DIVMTQTPLSLSVTPGQPASISCKSSQSLLYSDGKTYLYWYLQKAGQPPQLLIYEVSNRFSGVPDRFSGSGSGTDFTLKISRVEAEDVGVFYCMQSLKVPPTFGQGTKVDIK",–,–,0.546,0.592,–
"11B12-DNA-11B12 (antibody, V domains shown) VH: QVQLVESGGGVVQPGRSLRLSCAASGFSFSSYVMHWVRQAPGKGLEWVAVISYDGSDKYYADSVKGRFTISRDNAKNTLFLQMNSLRPEDTAVYYCARGRGYRYGQSYYYGMDVWGQGTTVTVSS VL: DIVMTQTPLSLSVTPGQPASISCKSSQSLLYSDGKTYLYWYLQKPGQPPQILIFEVSNRFSGVPDRFSGSGSGTDFTLKISRVEAEDVGVYYCMQSIKLPLTFGGGTKVEIK",0.144,0.084,–,–,–
"11F5-SG-11F5-SG (antibody, V domains shown) VH: EVQLVESGGGVVQPGRSLRLSCAASGFTFSSYVVHWVRQAPGKGLEWVAVISYSGDNKFYADSVKGRFTISRDNSKNTLYLQMNSLRTEDTAVYYCARGRNYYYYYGLDVWGQGTTVTVSS VL: DIVMTQTPLSLSVTPGQPASISCKSSQSLLYSSGKTYLYWYLQKAGQPPQLLIYEVSNRFSGVPDRFSGSGSGTDFTLKISRVEAEDVGVFYCMQSLKVPPTFGQGTKVDIK",0.033,0.069,–,–,–
